Assay results taken from patent US20150203577A1 (Chugai, published 2015).
Changes are numbered by the printed parent chain.

T1: mouse FcγRIII extracellular domain, C-terminally His-tagged (mouse, UniProt P08508 31-215)
T1 construct: the whole entry is named; also called mFcγRIII; mFcgRIII
T1 chain: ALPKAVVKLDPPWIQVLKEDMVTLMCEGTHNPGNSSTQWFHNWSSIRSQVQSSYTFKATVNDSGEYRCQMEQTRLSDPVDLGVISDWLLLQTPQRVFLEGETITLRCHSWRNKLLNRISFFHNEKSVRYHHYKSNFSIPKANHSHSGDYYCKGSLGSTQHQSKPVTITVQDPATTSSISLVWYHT

T2: mouse FcγRII extracellular domain, C-terminally His-tagged (mouse, UniProt P08101 30-210)
T2 construct: the whole entry is named; also called mFcγRII; mFcgRII
T2 sequence: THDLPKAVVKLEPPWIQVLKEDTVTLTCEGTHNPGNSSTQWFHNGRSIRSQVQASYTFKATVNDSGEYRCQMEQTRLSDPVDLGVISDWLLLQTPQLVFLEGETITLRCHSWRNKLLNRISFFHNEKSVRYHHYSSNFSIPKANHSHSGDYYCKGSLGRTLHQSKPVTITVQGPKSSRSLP

B1: H237-MB515/MRAL-k0 (antibody, mouse IgG1, kappa)
heavy: QVQLQESGPGLVKPSETLSLTCAVSGHSISHDHAWSWVRQPPGEGLEWIGFISYSGITNYNPSLQGRVTISRDNSKNTLYLQMNSLRAEDTAVYYCARSLARTTAMDYWGEGTLVTVSSAKTTPPSVYPLAPGSAAQTNSMVTLGCLVKGYFPEPVTVTWNSGSLSSGVHTFPAVLQSDLYTLSSSVTVPSSTWPSETVTCNVAHPASSTKVDKKIVPRDCGCKPCICEPNEVEMVFIFPPKPKDVLTITLTPKVTCVVVDISKDDPEVQFSWFVDDVEVHTAQTQPREEQFNSTFRSVSELPIMHQDWLNGKEFKCRVNSAAFPAPIEKTISKTKGRPKAPQVYTIPPPKEQMAKDKVSLTCMITDFFPEDITVEWQWNGQPAENYKNTQPIMDTDGSYFVYSKLNVQKSNWEAGNTFTCSVLHEGLHNHHTEKSLSHSPGK
light: not shown
notes: Template; copies: 2 + 2
B2: H237-MB543/MRAL-k0 (antibody, mouse IgG1, kappa)
heavy: B1 heavy with N320D, K330R
light: not shown
notes: copies: 2 + 2
B3: H237-MB529/MRAL-k0 (antibody, mouse IgG1, kappa)
heavy: B1 heavy with E229Q, M235E, S294L, K330R
light: not shown
notes: copies: 2 + 2
B4: H237-MB544/MRAL-k0 (antibody, mouse IgG1, kappa)
heavy: B1 heavy with A322D, K330R
light: not shown
notes: copies: 2 + 2
B5: H237-MB531/MRAL-k0 (antibody, mouse IgG1, kappa)
heavy: B1 heavy with E229Q, M235E, N320D, K330R
light: not shown
notes: copies: 2 + 2
B6: H237-MB538/MRAL-k0 (antibody, mouse IgG1, kappa)
heavy: B1 heavy with S294L
light: not shown
notes: copies: 2 + 2
B7: H237-MB537/MRAL-k0 (antibody, mouse IgG1, kappa)
heavy: B1 heavy with E229Q, M235E, S294L, N320D, A322D, K330R
light: not shown
notes: also called M6537; copies: 2 + 2
B8: H237-MB541/MRAL-k0 (antibody, mouse IgG1, kappa)
heavy: B1 heavy with S294L, K330R
light: not shown
notes: copies: 2 + 2
B9: H237-MB532/MRAL-k0 (antibody, mouse IgG1, kappa)
heavy: B1 heavy with E229Q, M235E, A322D, K330R
light: not shown
notes: copies: 2 + 2
B10: H237-MB545/MRAL-k0 (antibody, mouse IgG1, kappa)
heavy: B1 heavy with S294L, N320D, A322D
light: not shown
notes: copies: 2 + 2
B11: H237-MB530/MRAL-k0 (antibody, mouse IgG1, kappa)
heavy: B1 heavy with E229Q, M235E, N320D, A322D
light: not shown
notes: copies: 2 + 2
B12: H237-MB535/MRAL-k0 (antibody, mouse IgG1, kappa)
heavy: B1 heavy with E229Q, M235E, S294L, A322D, K330R
light: not shown
notes: copies: 2 + 2
B13: H237-MB540/MRAL-k0 (antibody, mouse IgG1, kappa)
heavy: B1 heavy with S294L, A322D
light: not shown
notes: copies: 2 + 2
B14: H237-MB536/MRAL-k0 (antibody, mouse IgG1, kappa)
heavy: B1 heavy with E229Q, M235E, N320D, A322D, K330R
light: not shown
notes: copies: 2 + 2
B15: H237-MB542/MRAL-k0 (antibody, mouse IgG1, kappa)
heavy: B1 heavy with N320D, A322D
light: not shown
notes: copies: 2 + 2
B16: H237-MB533/MRAL-k0 (antibody, mouse IgG1, kappa)
heavy: B1 heavy with E229Q, M235E, S294L, N320D, A322D
light: not shown
notes: copies: 2 + 2
B17: H237-MB534/MRAL-k0 (antibody, mouse IgG1, kappa)
heavy: B1 heavy with E229Q, M235E, S294L, N320D, K330R
light: not shown
notes: copies: 2 + 2
B18: H237-MB539/MRAL-k0 (antibody, mouse IgG1, kappa)
heavy: B1 heavy with S294L, N320D
light: not shown
notes: copies: 2 + 2

What was measured:
[1] = target: T1, mouse FcγRIII extracellular domain, …; assay: SPR Biacore T200, KD ratio, template MB515
Excerpt: (§1) The antibody H chain variable region used was the variable region H237 (SEQ ID NO: 1) of the H chain VH3-IgG1 of the anti-IL-6 receptor antibody Fv4-IgG1 described in WO2009/125825. The antibody L chain commonly used was the L chain MRAL-k0 (SEQ ID NO: 2) of the anti-IL-6 receptor antibody tocilizumab. H237-MB476/MRAL-k0 and H237-MB515/MRAL-k0 were used as templates to introduce new alterations. These variants were expressed and purified by the method of Reference Example 1 and evaluated for their binding to mFcγRII and mFcγRIII by the method of Reference Example 2 using Biacore T200.
(§2) Each altered antibody was analyzed for its interaction with each Fcγ receptor prepared above using Biacore T100 (GE Healthcare Japan Corp.), Biacore T200 (GE Healthcare Japan Corp.), Biacore A100, or Biacore 4000. The running buffer used was HBS-EP+ (GE Healthcare Japan Corp.). The assay temperature was set to 25° C. The sensor chips used were chips prepared by immobilizing Protein L (ACTIGEN or BioVision) onto Series S Sensor Chip CM5 (GE Healthcare Japan Corp.) or Series S Sensor Chip CM4 (GE Healthcare Japan Corp.) by the amine coupling method.
(§3) In order to calculate the KD value of each altered antibody for FcγR, kinetic analysis was conducted according to the following method: first, the antibody of interest was captured onto any of these chips and allowed to interact with mFcγR diluted with a running buffer. For the obtained sensorgram, the assay results were globally fit into the 1:1 Langmuir binding model using Biacore Evaluation Software to calculate an association rate constant ka (L/mol/s) and a dissociation rate constant kd (1/s). From these values, the dissociation constant KD (mol/L) was calculated.

[2] = target: T2, mouse FcγRII extracellular domain, …; assay: SPR Biacore T200, KD ratio, template MB515
Excerpt: as §1, §2, §3

[3] = target: T1, mouse FcγRIII extracellular domain, …; assay: SPR Biacore T200, KD ratio
Excerpt: as §1, §2, §3

[4] = target: T2, mouse FcγRII extracellular domain, …; assay: SPR Biacore T200, KD ratio
Excerpt: as §1, §2, §3

[5] = target: T1, mouse FcγRIII extracellular domain, …; assay: SPR Biacore T200, KD ratio, template MB476
Excerpt: as §1, §2, §3

[6] = target: T2, mouse FcγRII extracellular domain, …; assay: SPR Biacore T200, KD ratio, template MB476
Excerpt: as §1, §2, §3

| relative mFcγRIII-binding activity (template = 1) [1] | relative mFcγRII-binding activity (template = 1) [2] | relative mFcγRIII-binding activity (mIgG1 = 1) [3] | relative mFcγRII-binding activity (mIgG1 = 1) [4] | relative mFcγRII-binding activity (template H237-MB515/MRAL-k0 = 1) [4] | relative mFcγRIII-binding activity (template = 1) [5] | relative mFcγRII-binding activity (template = 1) [6] | relative mFcγRII-binding activity (H237-mIgG1/MRAL-k0 = 1) [4] | relative mFcγRII-binding activity (template H237-MB476/MRAL-k0 = 1) [4] | Binder |
| --- | --- | --- | --- | --- | --- | --- | --- | --- | --- |
| 1 fold | 1 fold | 1.3 fold | 137 fold |  |  |  |  |  | B1 |
| 1.69 fold | 1.42 fold | 2.2 fold | 195 fold | ≥ 1.4 fold |  |  |  |  | B2 |
|  |  | 5.9 fold | 282 fold |  | 2.24 fold | 1.08 fold |  |  | B3 |
| 2.45 fold | 2.01 fold | 3.2 fold | 276 fold | ≥ 1.4 fold |  |  |  |  | B4 |
|  |  | 3.3 fold | 229 fold |  | 1.25 fold | 0.88 fold |  |  | B5 |
| 1.3 fold | 0.63 fold | 1.7 fold | 86.2 fold |  |  |  |  |  | B6 |
|  |  | 8.9 fold | 510 fold |  | 3.36 fold | 1.95 fold |  |  | B7 |
| 2.48 fold | 0.75 fold | 3.3 fold | 103 fold |  |  |  |  |  | B8 |
|  |  | 6.2 fold | 329 fold |  | 2.35 fold | 1.26 fold |  |  | B9 |
| 2.02 fold | 1.19 fold | 2.7 fold | 163 fold |  |  |  |  |  | B10 |
|  |  | 8 fold | 623 fold |  | 3.04 fold | 2.38 fold | ≥ 350 fold | ≥ 1.4 fold | B11 |
|  |  | 8.5 fold | 422 fold |  | 3.21 fold | 1.61 fold |  |  | B12 |
| 2.15 fold | 1.09 fold | 2.8 fold | 149 fold |  |  |  |  |  | B13 |
|  |  | 7.7 fold | 396 fold |  | 2.9 fold | 1.52 fold |  |  | B14 |
| 2.57 fold | 2.8 fold | 3.4 fold | 384 fold | ≥ 1.4 fold |  |  | ≥ 350 fold |  | B15 |
|  |  | 7.2 fold | 394 fold |  | 2.74 fold | 1.51 fold |  |  | B16 |
|  |  | 33.8 fold | 421 fold |  | 12.8 fold | 1.61 fold |  |  | B17 |
| 1.45 fold | 0.77 fold | 1.9 fold | 105 fold |  |  |  |  |  | B18 |
